# In patent publication US10676765B2, “Methods for producing 3-hydroxy-3-methylbutyric acid” (Global Bioenergies, priority 2015, dated 2020):
# Experiments:
# [1] = Conversion of 3-hydroxyisovaleryl-CoA and ADP into 3-hydroxyisovaleric acid and ATP, phosphate butyryltransferase from Enterococcus faecalis with butyrate kinases; format: biochemical; conditions: 4 mM 3-hydroxyisovaleryl-CoA, 4 mM ADP, 0.2 mg/ml each enzyme, 20 min, 30° C.
# Method: (§1) The enzymatic assays were conducted in a total reaction volume of 0.2 ml.
# (§2) The standard reaction mixture contained:
# (§3) 50 mM potassium phosphate buffer pH 7.5
# 4 mM 3-hydroxyisovaleryl-CoA
# (§4) 0.2 mg/ml of purified phosphate butyryltransferase from Enterococcus faecalis
# (§5) 0.2 mg/ml of purified butyrate kinase from Lactobacillus casei or Geobacillus sp.
# A series of controls were performed in parallel (Assays C-H Table 5).
# The assays were then incubated for 20 min with shaking at 30° C.
# After an incubation period, the reactions were stopped by heating the reaction medium 4 min at 90° C. The samples were centrifuged, filtered through a 0.22 μm filter and the clarified supernatants were transferred into a clean vial for further analysis. The consumption of ADP and 3-hydroxyisovaleryl-CoA, and the formation of ATP and 3-hydroxyisovaleric acid and free coenzyme A (CoA-SH) were followed by HPLC analysis according to the methods described in Example 10.
# [2] = Conversion of 3-methylcrotonyl-CoA and ADP into 3-methylcrotonic acid and ATP, phosphate butyryltransferase from Enterococcus faecalis with butyrate kinases; format: biochemical; conditions: 4 mM 3-methylcrotonyl-CoA, 4 mM ADP, 0.2 mg/ml each enzyme, 20 min, 30° C.
# Method: as §1, §2, §3
# 4 mM 3-methylcrotonyl-CoA
# as §4, §5
# A series of controls was performed in parallel (Assays C-H Table 10).
# Assays were then incubated for 20 min with shaking at 30° C.
# After an incubation period, the reactions were stopped by heating the reaction medium 4 min at 90° C. The samples were centrifuged, filtered through a 0.22 μm filter and the clarified supernatants were transferred into a clean vial for further analysis. The consumption of ADP and 3-methylcrotonyl-CoA and the formation of ATP and 3-methylcrotonic acid and free coenzyme A (CoA-SH) were followed by HPLC analysis according to the methods described in Example 10 and Example 12.
molecule,measurement,setting,value
"phosphate butyryltransferase from Enterococcus faecalis: phosphate butyryltransferase (EC 2.3.1.19) from Enterococcus faecalis MTUP9, Uniprot A0A038BNC2 (protein, listed as Enterococcus faecalis, MTUP9, phosphate butyryltransferase (EC 2.3.1.19) from Enterococcus faecalis MTUP9, Uniprot A0A038BNC2) MITVSIAGGSQPEILQLVKKALKEAEQPLQFIVFDTNENLDTENLWKYVHCSDEATVAQEAVSLVATGQAQILLKGIIQTHTLLKEMLKSEHQLKNKPILSHVAMVELPAGKTFLLTDCAMNIAPTQATLIEIVENAKEVAQKLGLHHPKIALLSAAENFNPKMPSSVLAKEVTAHFNGQQEATVFGPLSLDLATSEEAVAHKRYSGPIMGDADILVVPTIDVGNCLYKSLTLFGHAKVGGTIVGTKVPVVLTSRSDSTESKFHSLRFAMRQV",production of 3-hydroxyisovaleric acid and ATP,[1],"significant production of 3-hydroxyisovaleric acid, without simultaneous generation of ATP"
same,production of 3-methylcrotonic acid and ATP,[2],significant production of 3-methylcrotonic acid without simultaneous generation of ATP
